Data from paper PMC4861311.

Assays:
[1] = target: CelB tetramer (Pyrococcus β-glucosidase CelB, isolated sample imaged by cryo-EM) (Pyrococcus furiosus) (UniProt Q51723); assay: cryo-EM structure
[2] = target: bacteriophage P22 coat protein (Salmonella typhimurium bacteriophage P22) (UniProt P26747); assay: SEC-MALS
Chain of UniProt P26747 (P26747 whole entry): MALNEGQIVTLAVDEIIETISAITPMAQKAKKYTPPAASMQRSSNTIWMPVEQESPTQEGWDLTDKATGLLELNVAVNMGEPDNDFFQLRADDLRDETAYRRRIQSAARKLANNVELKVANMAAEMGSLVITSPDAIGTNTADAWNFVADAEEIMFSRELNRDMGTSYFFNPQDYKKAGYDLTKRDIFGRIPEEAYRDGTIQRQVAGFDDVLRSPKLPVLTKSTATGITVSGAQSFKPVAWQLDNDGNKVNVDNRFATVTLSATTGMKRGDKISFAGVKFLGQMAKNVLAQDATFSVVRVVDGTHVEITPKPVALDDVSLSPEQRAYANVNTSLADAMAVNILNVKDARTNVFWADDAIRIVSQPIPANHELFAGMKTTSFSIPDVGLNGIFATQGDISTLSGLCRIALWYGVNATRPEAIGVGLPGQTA

stoichiometry N [1]	#Cargo/capsid [2]	Substance
4	–	CelB tetramer (Pyrococcus β-glucosidase CelB, isolated sample imaged by cryo-EM) (from UniProt Q51723 2-472) (enzyme)
–	224 cargo/capsid	EGFP fused to N-terminal-truncated P22 scaffold protein
